Results from patent US20140087995A1 (published 2014).
Numbered stars: 1 amine (or outer) side, 2 acyl side, 3 side chain; on linkers, the order of the positions; unused ones are H or OH. Bridge positions count the residues as written; N and C are the ends. Side chains are listed from the residue outwards. Ends that are not written are not given here. * marks the point of attachment. C20 diacid = O=C(O)CCCCCCCCCCCCCCCCCCC(=O)*; γGlu = O=C(O)[C@H](CCC(=O)[*:2])N[*:1]; AEEA = NCCOCCOCC(=O)O

T1: human amylin receptor (human, UniProt P30988 25-474; O60896 24-148, limits assumed)
T1 construct: whole, on cells; Calcitonin receptor plus RAMP-3 gives the amylin 3(a) receptor; membranes of Amylin 3(a)/CRE-luc cells were used; also called hAmylin-R; hAmylinR
T1 sequence (looked up) 1: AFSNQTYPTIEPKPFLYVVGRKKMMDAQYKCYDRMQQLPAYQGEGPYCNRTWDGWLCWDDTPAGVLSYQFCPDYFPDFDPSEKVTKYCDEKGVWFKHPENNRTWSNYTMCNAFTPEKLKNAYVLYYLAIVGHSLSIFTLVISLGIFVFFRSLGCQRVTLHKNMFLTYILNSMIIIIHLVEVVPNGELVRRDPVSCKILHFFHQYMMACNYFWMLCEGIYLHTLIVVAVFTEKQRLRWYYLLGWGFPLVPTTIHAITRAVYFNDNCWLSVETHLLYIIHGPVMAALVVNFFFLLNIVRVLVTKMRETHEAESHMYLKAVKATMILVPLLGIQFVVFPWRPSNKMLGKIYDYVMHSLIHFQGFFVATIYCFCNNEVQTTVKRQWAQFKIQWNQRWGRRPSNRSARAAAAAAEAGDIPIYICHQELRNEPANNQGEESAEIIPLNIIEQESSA
T1 sequence (looked up) 2: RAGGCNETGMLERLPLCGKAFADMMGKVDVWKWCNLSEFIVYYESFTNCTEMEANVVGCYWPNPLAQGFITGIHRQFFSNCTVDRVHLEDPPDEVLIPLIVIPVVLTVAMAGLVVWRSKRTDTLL


Molecular target: T1, human amylin receptor
Experiment: SPA competition binding, displacement of 125I-rat amylin from membranes with human amylin 3(a) receptor (Assay V)
How it was run: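 Cell membranes were prepared by homogenisation in Na-HEPES/EDTA buffer, pH 7.4, and stored at −80° C. They were then coupled to SPA beads at 35 ng/μL final and exposed to compounds in assay buffer containing CaCl2, MgCl₂, OA and Tween20. After 120 min at 25° C, plates were counted and IC₅₀ derived.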

| Binder | IC50 [nM] |
| --- | --- |
| {C20 diacid-γGlu}-GRCNTATCATQRLANFLRHSSPNFGAIPSSTNVGSHTY-NH2 (disulfide 3-8; SMILES CC[C@H](C)[C@H](NC(=O)[C@H](C)NC(=O)CNC(=O)[C@H](Cc1ccccc1)NC(=O)[C@H](CC(N)=O)NC(=O)[C@@H]1CCCN1C(=O)[C@H](CO)NC(=O)[C@H](CO)NC(=O)[C@H](Cc1c[nH]cn1)NC(=O)[C@H](CCCNC(=N)N)NC(=O)[C@H](CC(C)C)NC(=O)[C@H](Cc1ccccc1)NC(=O)[C@H](CC(N)=O)NC(=O)[C@H](C)NC(=O)[C@H](CC(C)C)NC(=O)[C@H](CCCNC(=N)N)NC(=O)[C@H](CCC(N)=O)NC(=O)[C@@H](NC(=O)[C@H](C)NC(=O)[C@@H]1CSSC[C@H](NC(=O)[C@H](CCCNC(=N)N)NC(=O)CNC(=O)CC[C@H](NC(=O)CCCCCCCCCCCCCCCCCCC(=O)O)C(=O)O)C(=O)N[C@@H](CC(N)=O)C(=O)N[C@@H]([C@@H](C)O)C(=O)N[C@@H](C)C(=O)N[C@@H]([C@@H](C)O)C(=O)N1)[C@@H](C)O)C(=O)N1CCC[C@H]1C(=O)N[C@@H](CO)C(=O)N[C@@H](CO)C(=O)N[C@H](C(=O)N[C@@H](CC(N)=O)C(=O)N[C@H](C(=O)NCC(=O)N[C@@H](CO)C(=O)N[C@@H](Cc1c[nH]cn1)C(=O)N[C@H](C(=O)N[C@@H](Cc1ccc(O)cc1)C(N)=O)[C@@H](C)O)C(C)C)[C@@H](C)O, also called -1G, 1R, 17R, 21P, 27P, 35H) | 0.344 |
| K([AEEA-γGlu-C20 diacid])RCNTATCATQRLANFLRHSSPNFGAIPSSTNVGSHTY-NH2 (disulfide 3-8; N-terminus assumed; SMILES CC[C@H](C)[C@H](NC(=O)[C@H](C)NC(=O)CNC(=O)[C@H](Cc1ccccc1)NC(=O)[C@H](CC(N)=O)NC(=O)[C@@H]1CCCN1C(=O)[C@H](CO)NC(=O)[C@H](CO)NC(=O)[C@H](Cc1c[nH]cn1)NC(=O)[C@H](CCCNC(=N)N)NC(=O)[C@H](CC(C)C)NC(=O)[C@H](Cc1ccccc1)NC(=O)[C@H](CC(N)=O)NC(=O)[C@H](C)NC(=O)[C@H](CC(C)C)NC(=O)[C@H](CCCNC(=N)N)NC(=O)[C@H](CCC(N)=O)NC(=O)[C@@H](NC(=O)[C@H](C)NC(=O)[C@@H]1CSSC[C@H](NC(=O)[C@H](CCCNC(=N)N)NC(=O)[C@@H](N)CCCCNC(=O)COCCOCCNC(=O)CC[C@H](NC(=O)CCCCCCCCCCCCCCCCCCC(=O)O)C(=O)O)C(=O)N[C@@H](CC(N)=O)C(=O)N[C@@H]([C@@H](C)O)C(=O)N[C@@H](C)C(=O)N[C@@H]([C@@H](C)O)C(=O)N1)[C@@H](C)O)C(=O)N1CCC[C@H]1C(=O)N[C@@H](CO)C(=O)N[C@@H](CO)C(=O)N[C@H](C(=O)N[C@@H](CC(N)=O)C(=O)N[C@H](C(=O)NCC(=O)N[C@@H](CO)C(=O)N[C@@H](Cc1c[nH]cn1)C(=O)N[C@H](C(=O)N[C@@H](Cc1ccc(O)cc1)C(N)=O)[C@@H](C)O)C(C)C)[C@@H](C)O, also called -1K, 1R, 17R, 21P, 27P, 35H) | 0.552 |
| {C20 diacid-γGlu}-GRCNTATCATQRLAHFLRHSSPNFGAIPSSTNVGSNTY-NH2 (disulfide 3-8; SMILES CC[C@H](C)[C@H](NC(=O)[C@H](C)NC(=O)CNC(=O)[C@H](Cc1ccccc1)NC(=O)[C@H](CC(N)=O)NC(=O)[C@@H]1CCCN1C(=O)[C@H](CO)NC(=O)[C@H](CO)NC(=O)[C@H](Cc1c[nH]cn1)NC(=O)[C@H](CCCNC(=N)N)NC(=O)[C@H](CC(C)C)NC(=O)[C@H](Cc1ccccc1)NC(=O)[C@H](Cc1c[nH]cn1)NC(=O)[C@H](C)NC(=O)[C@H](CC(C)C)NC(=O)[C@H](CCCNC(=N)N)NC(=O)[C@H](CCC(N)=O)NC(=O)[C@@H](NC(=O)[C@H](C)NC(=O)[C@@H]1CSSC[C@H](NC(=O)[C@H](CCCNC(=N)N)NC(=O)CNC(=O)CC[C@H](NC(=O)CCCCCCCCCCCCCCCCCCC(=O)O)C(=O)O)C(=O)N[C@@H](CC(N)=O)C(=O)N[C@@H]([C@@H](C)O)C(=O)N[C@@H](C)C(=O)N[C@@H]([C@@H](C)O)C(=O)N1)[C@@H](C)O)C(=O)N1CCC[C@H]1C(=O)N[C@@H](CO)C(=O)N[C@@H](CO)C(=O)N[C@H](C(=O)N[C@@H](CC(N)=O)C(=O)N[C@H](C(=O)NCC(=O)N[C@@H](CO)C(=O)N[C@@H](CC(N)=O)C(=O)N[C@H](C(=O)N[C@@H](Cc1ccc(O)cc1)C(N)=O)[C@@H](C)O)C(C)C)[C@@H](C)O, also called -1G, 1R, 14H, 17R, 21P, 27P) | 0.348 |
| K([γGlu-C20 diacid])CNTATCATQRLANFLRHSSPNFGAIPSSTNVGSNTY-NH2 (disulfide 2-7; N-terminus assumed; SMILES CC[C@H](C)[C@H](NC(=O)[C@H](C)NC(=O)CNC(=O)[C@H](Cc1ccccc1)NC(=O)[C@H](CC(N)=O)NC(=O)[C@@H]1CCCN1C(=O)[C@H](CO)NC(=O)[C@H](CO)NC(=O)[C@H](Cc1c[nH]cn1)NC(=O)[C@H](CCCNC(=N)N)NC(=O)[C@H](CC(C)C)NC(=O)[C@H](Cc1ccccc1)NC(=O)[C@H](CC(N)=O)NC(=O)[C@H](C)NC(=O)[C@H](CC(C)C)NC(=O)[C@H](CCCNC(=N)N)NC(=O)[C@H](CCC(N)=O)NC(=O)[C@@H](NC(=O)[C@H](C)NC(=O)[C@@H]1CSSC[C@H](NC(=O)[C@@H](N)CCCCNC(=O)CC[C@H](NC(=O)CCCCCCCCCCCCCCCCCCC(=O)O)C(=O)O)C(=O)N[C@@H](CC(N)=O)C(=O)N[C@@H]([C@@H](C)O)C(=O)N[C@@H](C)C(=O)N[C@@H]([C@@H](C)O)C(=O)N1)[C@@H](C)O)C(=O)N1CCC[C@H]1C(=O)N[C@@H](CO)C(=O)N[C@@H](CO)C(=O)N[C@H](C(=O)N[C@@H](CC(N)=O)C(=O)N[C@H](C(=O)NCC(=O)N[C@@H](CO)C(=O)N[C@@H](CC(N)=O)C(=O)N[C@H](C(=O)N[C@@H](Cc1ccc(O)cc1)C(N)=O)[C@@H](C)O)C(C)C)[C@@H](C)O, also called 17R, 21P, 27P) [N^ε1-[(4S)-4-carboxy-4-(19-carboxynonadecanoylamino)butanoyl]-[Arg17,Pro21,Pro27]-h-amylin] | 0.443 |

Binders with a lower IC50, results first:

| IC50 [nM] | Binder |
| --- | --- |
| 0.275 | K([γGlu-C20 diacid])RCNTATCATQRLANFLRHSSPNFGAIPSSTNVGSHTY-NH2 (disulfide 3-8; N-terminus assumed; SMILES CC[C@H](C)[C@H](NC(=O)[C@H](C)NC(=O)CNC(=O)[C@H](Cc1ccccc1)NC(=O)[C@H](CC(N)=O)NC(=O)[C@@H]1CCCN1C(=O)[C@H](CO)NC(=O)[C@H](CO)NC(=O)[C@H](Cc1c[nH]cn1)NC(=O)[C@H](CCCNC(=N)N)NC(=O)[C@H](CC(C)C)NC(=O)[C@H](Cc1ccccc1)NC(=O)[C@H](CC(N)=O)NC(=O)[C@H](C)NC(=O)[C@H](CC(C)C)NC(=O)[C@H](CCCNC(=N)N)NC(=O)[C@H](CCC(N)=O)NC(=O)[C@@H](NC(=O)[C@H](C)NC(=O)[C@@H]1CSSC[C@H](NC(=O)[C@H](CCCNC(=N)N)NC(=O)[C@@H](N)CCCCNC(=O)CC[C@H](NC(=O)CCCCCCCCCCCCCCCCCCC(=O)O)C(=O)O)C(=O)N[C@@H](CC(N)=O)C(=O)N[C@@H]([C@@H](C)O)C(=O)N[C@@H](C)C(=O)N[C@@H]([C@@H](C)O)C(=O)N1)[C@@H](C)O)C(=O)N1CCC[C@H]1C(=O)N[C@@H](CO)C(=O)N[C@@H](CO)C(=O)N[C@H](C(=O)N[C@@H](CC(N)=O)C(=O)N[C@H](C(=O)NCC(=O)N[C@@H](CO)C(=O)N[C@@H](Cc1c[nH]cn1)C(=O)N[C@H](C(=O)N[C@@H](Cc1ccc(O)cc1)C(N)=O)[C@@H](C)O)C(C)C)[C@@H](C)O, also called -1K, 1R, 17R, 21P, 27P, 35H) |
| 0.217 | {C20 diacid-γGlu}-GRCNTATCATQRLAHFLRHSSPNFGAIPSSTNVGPNTY-NH2 (disulfide 3-8; SMILES CC[C@H](C)[C@H](NC(=O)[C@H](C)NC(=O)CNC(=O)[C@H](Cc1ccccc1)NC(=O)[C@H](CC(N)=O)NC(=O)[C@@H]1CCCN1C(=O)[C@H](CO)NC(=O)[C@H](CO)NC(=O)[C@H](Cc1c[nH]cn1)NC(=O)[C@H](CCCNC(=N)N)NC(=O)[C@H](CC(C)C)NC(=O)[C@H](Cc1ccccc1)NC(=O)[C@H](Cc1c[nH]cn1)NC(=O)[C@H](C)NC(=O)[C@H](CC(C)C)NC(=O)[C@H](CCCNC(=N)N)NC(=O)[C@H](CCC(N)=O)NC(=O)[C@@H](NC(=O)[C@H](C)NC(=O)[C@@H]1CSSC[C@H](NC(=O)[C@H](CCCNC(=N)N)NC(=O)CNC(=O)CC[C@H](NC(=O)CCCCCCCCCCCCCCCCCCC(=O)O)C(=O)O)C(=O)N[C@@H](CC(N)=O)C(=O)N[C@@H]([C@@H](C)O)C(=O)N[C@@H](C)C(=O)N[C@@H]([C@@H](C)O)C(=O)N1)[C@@H](C)O)C(=O)N1CCC[C@H]1C(=O)N[C@@H](CO)C(=O)N[C@@H](CO)C(=O)N[C@H](C(=O)N[C@@H](CC(N)=O)C(=O)N[C@H](C(=O)NCC(=O)N1CCC[C@H]1C(=O)N[C@@H](CC(N)=O)C(=O)N[C@H](C(=O)N[C@@H](Cc1ccc(O)cc1)C(N)=O)[C@@H](C)O)C(C)C)[C@@H](C)O, also called -1G, 1R, 14H, 17R, 21P, 27P, 34P) |
